Reference: patent US20180022822A1, “NOVEL ANTI-FIBROBLAST ACTIVATION PROTEIN (FAP) BINDING AGENTS AND USES THEREOF” (Mabimmune Diagnostics AG, priority 2016, published 2018)
Each block holds one molecule with its values, some of them ahead of it.

Assays:
[1] = target: T1, directly coated FAP (FAP) (Homo sapiens, UniProt Q12884); assay: direct ELISA on directly coated FAP; type: binding; conditions: ELISA, varying antibody concentrations
T1 sequence (Q12884 1-760): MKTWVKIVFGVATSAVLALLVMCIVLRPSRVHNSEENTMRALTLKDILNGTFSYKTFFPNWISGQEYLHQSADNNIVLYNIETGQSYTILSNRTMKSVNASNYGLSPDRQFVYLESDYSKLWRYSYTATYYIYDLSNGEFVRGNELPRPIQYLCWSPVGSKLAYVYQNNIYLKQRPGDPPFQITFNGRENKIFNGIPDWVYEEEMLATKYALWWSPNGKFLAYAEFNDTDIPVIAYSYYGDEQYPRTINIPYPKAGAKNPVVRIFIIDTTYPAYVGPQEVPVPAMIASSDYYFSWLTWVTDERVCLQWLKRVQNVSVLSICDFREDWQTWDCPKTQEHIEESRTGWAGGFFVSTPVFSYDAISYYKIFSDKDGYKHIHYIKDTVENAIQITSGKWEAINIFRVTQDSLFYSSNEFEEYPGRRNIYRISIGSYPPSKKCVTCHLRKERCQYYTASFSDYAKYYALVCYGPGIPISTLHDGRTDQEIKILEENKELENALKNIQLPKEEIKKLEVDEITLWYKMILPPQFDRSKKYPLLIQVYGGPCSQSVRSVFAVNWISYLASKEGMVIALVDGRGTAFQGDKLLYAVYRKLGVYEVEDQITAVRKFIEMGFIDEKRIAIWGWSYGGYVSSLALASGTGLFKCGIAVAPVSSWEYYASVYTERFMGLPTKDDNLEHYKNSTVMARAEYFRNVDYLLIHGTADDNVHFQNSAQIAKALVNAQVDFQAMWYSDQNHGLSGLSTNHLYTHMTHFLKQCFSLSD
Method: (§1) ELISA assays were performed with varying antibody concentrations to validate the binding of the exemplary antibodies of the present invention to FAP and to be able to determine their half maximal effective concentration (EC50). For the exemplary recombinant human NI-206-18H2, NI-206-20A8, NI-206-6D3, ‘NI-206-14C5, NI-206-34C11, NI-206.82C2, NI-206.59B4, NI-206.22F7, NI-206.27E8, NI-206.12G4 and NI-206.17A6 antibodies, 96-well microplates (Costar, Corning, USA) were coated with FAP, with a mixture of the 3 peptides or with BSA (Sigma-Aldrich, Buchs, Switzerland) diluted to a concentration of 5 μg/ml in carbonate ELISA coating buffer (15 mM Na2CO3, 35 mM NaHCO3, pH 9.4) for the direct ELISA. For the capture ELISA, the microplates were coated with mouse anti-His monoclonal antibody (Clontech) diluted to a concentration of 3 μg/ml in PBS, the plates were then blocked, FAP or BSA were diluted to a concentration of 2 μg/ml in PBS and added to the plates to be captured. The binding efficiency of the antibodies was then tested.
(§2) The EC50 values were estimated by a non-linear regression using GraphPad Prism (San Diego, USA) software. […] The binding of NI-206.12G4 towards sFAP was not tested.

[2] = test system: directly coated FAP peptides mixture (cFAP); assay: direct ELISA on coated mixture of FAP peptides; type: binding, human; conditions: peptides 378-392, 622-636, 721-736
Method: as §1, §2

[3] = target: T2, recombinant human FAP (sFAP, FAP) versus CD26 and unrelated human antigens (A-N) (Homo sapiens, UniProt Q12884); assay: binding specificity ELISA against FAP versus unrelated human antigens; conditions: detection antibody at 20, 4 and 0.8 nM
T2 sequence (Q12884 26-760 limits assumed): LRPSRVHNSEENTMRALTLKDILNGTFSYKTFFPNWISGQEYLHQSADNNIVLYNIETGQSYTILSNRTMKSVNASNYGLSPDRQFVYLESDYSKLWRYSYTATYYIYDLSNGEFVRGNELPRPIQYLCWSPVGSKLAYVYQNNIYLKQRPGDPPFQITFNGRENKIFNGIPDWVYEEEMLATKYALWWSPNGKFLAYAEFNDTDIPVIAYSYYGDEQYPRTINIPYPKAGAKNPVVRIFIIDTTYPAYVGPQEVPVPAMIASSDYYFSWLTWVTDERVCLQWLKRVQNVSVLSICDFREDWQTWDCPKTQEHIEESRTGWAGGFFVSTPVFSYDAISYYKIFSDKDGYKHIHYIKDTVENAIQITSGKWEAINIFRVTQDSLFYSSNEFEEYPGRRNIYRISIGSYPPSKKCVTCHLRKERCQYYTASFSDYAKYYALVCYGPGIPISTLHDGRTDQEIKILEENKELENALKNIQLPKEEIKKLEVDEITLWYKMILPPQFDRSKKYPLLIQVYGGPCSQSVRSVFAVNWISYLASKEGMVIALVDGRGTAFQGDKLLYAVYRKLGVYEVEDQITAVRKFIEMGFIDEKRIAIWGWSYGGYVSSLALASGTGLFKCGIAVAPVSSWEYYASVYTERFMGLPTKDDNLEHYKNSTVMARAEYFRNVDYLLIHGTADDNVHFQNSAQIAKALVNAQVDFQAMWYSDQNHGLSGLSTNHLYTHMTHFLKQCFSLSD
Method: A mouse anti-6×-histidine tag antibody (Clonetech) was coated at a concentration of 3 μg/ml in PBS to a 96 well ELISA plate, the plates were then blocked with 5% BSA in PBS, and enzymatically active recombinant human FAP with an N-terminus 6× histidine tag was added to the plates to be captured. The binding efficiency of NI-206.82C2, NI-206.18H2, NI-206.20A8 and NI-206.6D3 (at 20 nM, 4 nM, and 0.8 nM) against sFAP and of NI-206.18H2, NI-206.20A8 and NI-206.6D3 against FAP as well was then tested by 1 hour incubation, followed by washing with PBS and detection with an HRP-labelled goat anti-human antibody (Jackson Immunoresearch) using a colormetric assay. To assess NI-206.82C2, NI-206.18H2, NI-206.20A8 and NI-206.6D3 binding other targets, recombinant human CD26 (only in case of NI-206.82C2) and fourteen other unrelated recombinant human proteins (A-N) were individually added to a 96-well ELISA plate in triplicate, and the binding efficacy of NI-206.82C2 was evaluated. (FIG. 7A to D)

EC50 to the directly coated FAP peptides mixture (cFAP) [2]: did not show any binding | colorimetric ELISA signal against FAP versus panel of unrelated human antigens [3]: significantly greater
B1: NI-206.18H2: human-derived recombinant anti-FAP antibody; VH SEQ ID NO: 41, VL SEQ ID NO: 43 (antibody, listed as Homo sapiens, V domains shown)
VH: QVQLQESGPRLVKPSETLSLTCTVSGYSISNGYYWGWIRQPPGQGLEWIASVWHSGNTYHNPSLKSRVTILVDTLKNQFSLNLKSVTAADTALYYCARSYTRNDVGAFETWGQGTMVTVSS
VL: SYELTQPPSVSVSPGQTARIACSGDELPKRYAYWYQQKSGQAPVLVMYEDTKRPSGIPERLSGSSSGTVTTLTISGAQVEDEADYYCYSTAPSGNHTFVFGTGTRVTVL
binding to the directly coated FAP [1]: specifically, strongly and similarly bind

binding to the directly coated FAP [1]: strongly and similarly bind | EC50 to the directly coated FAP peptides mixture (cFAP) [2]: did not show any binding | colorimetric ELISA signal against FAP versus panel of unrelated human antigens [3]: significantly greater
B2: NI-206.6D3: human-derived recombinant anti-FAP antibody; VH SEQ ID NO: 49, VL SEQ ID NO: 51 (antibody, listed as Homo sapiens, V domains shown)
VH: EVQLVESGGGLVKPGESLRLSCAASGFTFSKAWMNWVRQGPGKGLEWVGRVKSKTDGGTTDYAAPVKGRFTISRDDSKDTVFLQMNSLKTEDTAVYYCSIQFIVVGDRGRDDQYMDVWGKGTTVTVSS
VL: SYVLTQPPSVSVSPGQTARITCSGDALPKQYAFWYQQKPGQAPVIMIYKDNQRPSGIPERFSGSSSGTTVTLTISGVQTEDEADYYCQSADSTNTHVVFGGGTKLTVL

binding to the directly coated FAP [1]: less efficiently | EC50 to the directly coated FAP peptides mixture (cFAP) [2]: did not show any binding | colorimetric ELISA signal against FAP versus panel of unrelated human antigens [3]: significantly greater
B3: NI-206.82C2: human-derived recombinant anti-FAP antibody; VH SEQ ID NO: 2 or 4 (PIMC), VL SEQ ID NO: 6 (antibody, V domains shown)
VH: QVQLQQSGPGLVKPSQTLSLTCAISGDSVSSNSVTWNWIRQSPSRGLEWLGRTYYRSKWYNDYAVSVKGRITINPDTSKNQFYLQLKSVTPEDAAVYYCARDSSILYGDYWGQGTLVTVSS
VL: QAVLTQPSSLSASPGASASLTCTLPSGINVGTYRIFWFQQKPGSPPQYLLSYKSDSDNHQGSGVPSRFSGSKDASANAGILLISGLQSEDEADYYCMIWHSSAWVFGGGTKLTVL
